Residue numbers refer to the chain shown, from its start. Ends that are not written are not given here. Me2 = dimethyl (dimethyl-lysine)
T1: KDM2A K323A/F324A (UniProt Q9Y2K7 1-1162, K323A | F324A)
T1 sequence (looked up): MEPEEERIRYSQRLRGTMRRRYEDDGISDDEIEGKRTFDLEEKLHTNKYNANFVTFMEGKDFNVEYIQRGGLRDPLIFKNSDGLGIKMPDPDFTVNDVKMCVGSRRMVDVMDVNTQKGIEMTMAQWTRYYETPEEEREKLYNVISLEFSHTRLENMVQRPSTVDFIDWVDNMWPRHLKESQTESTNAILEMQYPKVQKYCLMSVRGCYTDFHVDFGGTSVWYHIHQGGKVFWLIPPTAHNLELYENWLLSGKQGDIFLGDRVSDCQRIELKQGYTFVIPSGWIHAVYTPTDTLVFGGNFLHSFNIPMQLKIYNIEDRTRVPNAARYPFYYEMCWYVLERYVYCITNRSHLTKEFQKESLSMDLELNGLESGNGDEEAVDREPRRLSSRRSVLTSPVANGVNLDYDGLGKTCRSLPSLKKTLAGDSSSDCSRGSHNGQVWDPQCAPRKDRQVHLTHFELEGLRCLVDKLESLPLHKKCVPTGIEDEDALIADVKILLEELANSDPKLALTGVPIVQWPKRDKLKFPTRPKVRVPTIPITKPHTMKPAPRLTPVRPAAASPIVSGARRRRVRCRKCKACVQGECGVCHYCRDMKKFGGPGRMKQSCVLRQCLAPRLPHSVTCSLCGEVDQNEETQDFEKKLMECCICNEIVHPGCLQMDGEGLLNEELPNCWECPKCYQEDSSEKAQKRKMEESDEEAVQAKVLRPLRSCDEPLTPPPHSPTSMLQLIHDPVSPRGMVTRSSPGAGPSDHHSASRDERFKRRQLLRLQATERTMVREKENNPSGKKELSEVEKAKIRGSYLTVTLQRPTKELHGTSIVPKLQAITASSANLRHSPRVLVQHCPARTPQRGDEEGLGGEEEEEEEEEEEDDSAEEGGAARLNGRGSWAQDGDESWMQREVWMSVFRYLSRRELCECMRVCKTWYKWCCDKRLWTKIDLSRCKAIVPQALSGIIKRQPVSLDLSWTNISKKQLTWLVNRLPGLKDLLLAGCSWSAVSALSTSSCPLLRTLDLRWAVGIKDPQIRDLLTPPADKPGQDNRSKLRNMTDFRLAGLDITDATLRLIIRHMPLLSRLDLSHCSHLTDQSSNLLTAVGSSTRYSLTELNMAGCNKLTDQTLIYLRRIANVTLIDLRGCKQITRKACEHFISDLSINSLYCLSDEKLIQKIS

T2: KDM2A N186A (UniProt Q9Y2K7 1-1162, N186A)
T2 sequence (looked up): T1 sequence (looked up) with N186A, A323K, A324F


Legend:
[1] = molecular target: truncated KDM2A construct (36–517) lacking the 1–35 and 365–449 peptide segments (UniProt Q9Y2K7)
KDM2A K323A/F324A = molecular target: T1, KDM2A K323A/F324A; assay: cell-based or functional assay
KDM2A N186A = molecular target: T2, KDM2A N186A; assay: cell-based or functional assay

Row | Molecule | demethylation of the mutant H3K36me2 peptide by wild-type KDM2A in vitro [1] [fold] | H3K36me2 demethylation activity in vitro, fluorescence-based assay (KDM2A K323A/F324A) [fold reduction] | H3K36me2 demethylation activity in vitro, fluorescence-based assay (KDM2A N186A) [fold reduction]
1 | H3K36me2 peptide Y41A | < 2 |  | 
2 | APATGGVK(Me2)KPHRY [H3(A29–Y41)K36me2 peptide] |  | ~3 | ~3

— paper PMC4197961 (Genes & Development, 2014)
